# Data: the DeepSol protein solubility set
# Test: soluble on expression in E. coli; label from the status in PepcDB or PDB records
row,Sequence,soluble on expression in E. coli
1,MGSDKIHHHHHHMLRVAVVGGGPSGSCAAEVLAKAGIQTWLFERKLDNAKPCGGAIPLCMVDEFDLPESIIDRKVRNMRMISPSNREVDITLDKVYSPDDKSEYIGMCRREVMDAFMRDRAASLGTNLINGLVTKIDTGSNRQGPYTITYSDYSTGKSTGEAKSLEVDLIIGADGANSRVATAMDAGDYNVAIAFQERIKLPNEEMAYYEDLAEMYVGTDVSPDFYGWVFPKYDHVAVGTGTMQKNQTLIKSLQKGVRERAKKRLVHGEVIKVEAHPIPEHPRPRRVVGRMALVGDAAGYVTKSSGEGIYFAAKSGRMCAEQIVESSRSGELIPSEADLKKYLKKWDRKYGSTYIVLSILQAIFYSNDTAREAFVAMCDDMDVQRLTFDSYLYKKVVAMNPWQQIKLTLLTVDALARGIFRNQTSYKPVPSAVRSDEEVNAMLEIKTITGGIKVDNNKDASKQNLASEQEERDPAVSNKS,not soluble
2,MSDLYRNKKILAPMVRAGRTPLRLLCLKYGADLCYTEEIVDKKLIEATRVVNEALGTIDYRNGDDIILRLAPEEKGRCILQIGTNSGEKAAKIAQIVGDDVAGIDVNMGCPKPFSIHCGMGAALLTQTEKIVDILTSLKSAAKVPVTCKIRVLDDPEDTLKLVQEIEKCRVSALGVHGRRRDERQPDKCRIDEIRDVAQAVQSIPVISNGLSDEIEQYSDFEKYQLLTETSSTMIARKALSTPSIFRREGCLDKYEDIRNFLELACQYDESYTMTKYVVQRILGADQEYDPRGKATVAAGSVLQICKAFGMEDVYDKWRDERKKKQSKKRARVDDDGVYNIEVSFPLKRLKNSVGFSPTPKMVLHDYCVETKIPKATYEVVKRDDKRFVATACIGDKKYRSGIGQPNLRMAEQVAALAALHGMNIRNLLVGNWEEE,not soluble
3,GPGSMGRERMASSWRMPVYRSWQCSTPWSVSLPHPGPALPTLLVRHVCTPVSVCLYTNLSYCSLHAHNSIERLPPPLHAFVPTTHTHTHKHTYICIYACHSPLLRVSTWTKAFCLILRSRTLSTMSTKYLAAYALASLSKASPSQADVEAICKAVHIDVDQATLAFVMESVTGRDVATLIAEGAAKMSAMPAASSGAAAGVTASAAGDAAPAAAAAKKDEPEEEADDDMGFGLFD,not soluble
4,MGSDKIHHHHHHMQLRALMYFDELVRTNSMRAAAENLNVAPTAVSRQIENLEYYFGSPLVERSSRGVKLTAAGELLAARAGKTLRELDHVHRLIDDLKGLQRGRVTVYANGATVANLLAPVLAQFSLKYPKLRFEVHITSARQAMEALGAAEADLVVSLFAPKLSGVKVRSRTRISYDVIFPAGHALAAQPEVSLKELAGMPLALPDKSFAARQAFDTLFADAGIELDPVFITSSLEMLKELVLGNAAATLLPALSVAREIRSGQMVAVPLAGKKGIHTQIDLCVAPDRQLSFAASKLADFIERFMREATAG,not soluble
5,MKKTQSEPDQEAIRKIEELSQDLIEGLESYGARLLSVYAHGGILFSEQSEFLHQLVGGRRERIPLTFGTIASTIYSDRVIFGKETIEIRHESNERFAGMFGWKEYPSKTRPGMTDGLLTAPFEFILTQSFVFKSKAAASVIMGRKQNQMINAADRASSQIEALDEALDDLESNRFVLGEHHLSLAVFANHPKALAEYLSKARAHLTNGGAVIAREDLGLEAAWWAQLPGNFSYRARSGAITSRNFAALSPFHSFPIGKLEGNVWGTAVALLKTQAGSPYYFNFHYGDLGNTFVCGPSGSGKTVIVNFLLAQLQKHNPTMVFFDKDQGAEIFVRAGGGKYKPLKNGQPTGIAPLKGMEYTEKNKVFLRNWVLKLVTAEGQTVTEEERQDIAKAIDALGNLPHAQRSLSALQLFFDNTSKEGIAIRLQRWLKGNDLGWVFDNDQDDLNLDSQFIGYDMTDFLDNEEIRRPLMMYLFNRILDLIDGRRIIIVIDEFWKALEDDSFKAFAQDRLKTIRKQNGMMLFATQSPKDALNSTIAHTIIEQCPTQIFFPNQKANYKDYVEDFKLTEREFELIQSELSRESRRFLIKQGQSSVVAELNLRGMNDEIAVLSGTTKNIELVNQIISEYGADPDIWLPIFHQRRENQLEHHHHHH,soluble
6,MTYGIVIVSHSPEIASGLKKLIREVAKNISLTAIGGLENGEIGTSFDRVMNAIEENEADNLLTFFDLGSARMNLDLVSEMTDKELTIFNVPLIEGAYTASALLEAGATFEAIKEQLEKMLIEKRSHHHHHH,soluble
7,MLSGPHPSPTFRPNPCPWPCLHSLWMEISPTQLCFLSPGPSPQSPSCCFQGMNSGSELGKLWRKLFKGIPRLSVSHFDFYCGTCVLLGRPQIPQGSSLGNDIDQYPVVFRNASDQGSWMQLEMLLRKLSDLVWTSDALSDKILEDGLVP,soluble
8,CGSSSHETSYGYATLSYADYWAGELGQSRDVLLAGNAEADRAGDLDAGMFDAVSRATHGHGAFRQQFQYAVEVLGEKVLSKQETEDSRGRKKWEYETDPSVTKMVRASASFQDLGEDGEIKFEAVEGAVALADRASSFMVDSEEYKITNVKVHGMKFVPVAVPHELKGIAKEKFHFVEDSRVTENTNGLKTMLTEDSFSARKVSSMESPHDLVVDTVGTGYHSRFGSDAEASVMLKRADGSELSHREFIDYVMNFNTVRYDYYGDDASYTNLMASYGTKHSADSWWKTGRVPRISCGINYGFDRFKGSGPGYYRLTLIANGYRDVVADVRFLPKYEGNIDIGLKGKVLTIGGADAETLMDAAVDVFADGQPKLVSDQAVSLGQNVLSADFTPGTEYTVEVRFKEFGSVRAKVVAQ,soluble
9,MSTHEATLQQPLLRAIDLKKHYPVKKGIFSPERLVKALDGVSFNLERGKTLAVVGESGCGKSTLGRLLTMIETPTGGELYYQGQDLLKHDPHAQKLRRQKIQIVFQNPYGSLNPRKKVGQILEEPLLINTSLSKAQRREKALAMMAKVGLKTEHYDRYPHMFSGGQRQRIAIARGLMLDPDVVIADEPVSALDVSVRAQVLNLMMDLQQDMGLSYVFISHDLSVVEHIADEVMVMYLGRCVEKGTKEQIFNNPRHPYTQALLSATPRLNPDDRRERIKLTGELPSPLNPPPGCAFNARCSRRFGPCTQLQPQLKEYDGQLVACFAVDQDENPQKPLS,not soluble
10,MGVPFIRFLNITFDRRGDELTGVLNFDDKLIGNPFLPAIHGGVTAAFLEVTAVITLSWAHLFERIESGDLAPEDILTDENMRFPKTIDFTIDYLRSGLPRDAYARAYISRAGRRYASVRVEAWQDHHDKLYAQGTGHFLMPLEHHHHHH,soluble
11,VGKMTPDFLGSLSTTLSWKNLSLHIATDMRFGGLVASYSNLYGTQAGWIKSSLKWRDPEHGGLSWTSQYGDSKGISYGDGVIPDGVFKNGTFATLVDGTKMDVSGMSYKQLVAEGKLEPTHAGTYHVNRAAWGQNTIFDTWVHELNYIALREITLSYRFPKSVASKFGAQGLGLSFSARNLGYLYNSLPNHLNPESVRGNTASEFRIRGYEPYTANYMMTINVDF,not soluble
12,EPAQVRLLSSDFVLPGKHQRLAGWAREAGVELRGLRLGIGEAPPGEWLDGGNLLILDTPRPTDRAQVEEALGERLQGGTQPWIRVGGGPPGFGNLPAALGGRLVGYYANGGEANLRRLFEAVRRWHAGLTVDALPAPQPLAQAGFYHPDAPAPFAVLADYLAWGASRWASDAPRIAFLIPRGAIADAQTGAIDELLRRSERHGQAPLAVWFDDSDPEALRKSFAGADVQALVNLQHLQNGPARRAEFLALDVPVLQTLGYRDGNEADWLAAASGVAPRTAAAFLGMPETWGMSDPLVISALENGEPKLMAGQAEALLDKLDRLLRLRRLPAADKHLALMFWNHPEGEKNVAASHLNVPASLARLGEALRAAGYRVATSDESALIDTAQRLLGGYYRPQTLDALYRDGLAASLPLDAYLHWFEALPADLREEMRARWGDPRRHWALRDIDGQRRFVFPAARLGNLLLLPQPPRAGRPGEAYHDSAVPPDHLYLAVYQFVREGFGADALIHFGTHGTQEWLPGKDRGLAVGDYPLRALGDLPVFYPYIQDNVGEAIQARRRGRAVTVSHQTPSFAPAGLYDELRDLHQLIHEYQQLDEGAVRERSAEQIRAAVRAAHMNDDLGWSEAAMHEDFPAFLGVLHDHLHRLAGSAMPLGLHTFGVAASPELRLGTVMQQLGEPYYRALGLDPDELFAADFRALREGRAYRTLQRYLRDGGEIAKVADPRLREQLLRARELDRQLADTGELEALLAGLAGRFVAPGPGGDPIRNPQVPSGRNLFAFEADKVPTRAAYEAGAEAFGQLLESYRAEHQGRAPEKLAFSLWSSETMRHLGIVESQALHALGLRPRWDAGGRLLALDIVPAAELGRPRVDVVLQVTSVYRDQFDGFMRLLAEAIERLAALDEPGNPLARNSQALERRLRERGVEAPLAQRLSRLRLFGNAPGDYGTGVTQLTLDSTRWDDDSALAEQFLGRLQYAYGSRDWGVKLDGGNLFAEQLKGVQAAILSRSSTLNGVLSTDHPFEYLGGLSLAVRHLDGASPALYIADLRQRQPRTTAAAQFLASELRGRYLSPQWIAAMQREGYAGSLEMLDLANNLWGWQAADRIMVRADQWQALHDTFVMDRRELGLAEWFETHNPTAQAQIIARMAEAIRKGYWDASEQTRRELAERWRQLAAAGAGEVGAATTREFIERMAGGFGEAAAQAEGAAASGAGETVSGRVLEEVAPPPSGEPQ,not soluble
13,ANADNYKNVINRTGAPQYMKDYDYDDHQRFNPFFDLGAWHGHLLPDGPNTMGGFPGVALLTEEYINFMASNFDRLTVWQDGKKVDFTLEAYSIPGALVQKLTAKDVQVEMTLRFATPRTSLLETKITSNKPLDLVWDGELLEKLEAKEGKPLSDKTIAGEYPDYQRKISATRDGLKVTFGKVRATWDLLTSGESEYQVHKSLPVQTEINGNRFTSKAHINGSTTLYTTYSHLLTAQEVSKEQMQIRDILARPAFYLTASQQRWEEYLKKGLTNPDATPEQTRVAVKAIETLNGNWRSPGGAVKFNTVTPSVTGRWFSGNQTWPWDTWKQAFAMAHFNPDIAKENIRAVFSWQIQPGDSVRPQDVGFVPDLIAWNLSPERGGDGGNWNERNTKPSLAAWSVMEVYNVTQDKTWVAEMYPKLVAYHDWWLRNRDHNGNGVPEYGATRDKAHNTESGEMLFTVKKGDKEETQSGLNNYARVVEKGQYDSLEIPAQVAASWESGRDDAAVFGFIDKEQLDKYVANGGKRSDWTVKFAENRSQDGTLLGYSLLQESVDQASYMYSDNHYLAEMATILGKPEEAKRYRQLAQQLADYINTCMFDPTTQFYYDVRIEDKPLANGCAGKPIVERGKGPEGWSPLFNGAATQANADAVVKVMLDPKEFNTFVPLGTAALTNPAFGADIYWRGRVWVDQFWFGLKGMERYGYRDDALKLADTFFRHAKGLTADGPIQENYNPLTGAQQGAPNFSWSAAHLYMLYNDFFRKQ,soluble
14,MSLSGKNNIELDSWKKAINVISKNMDNGRIGIVQGPPGTGKTTIYANAFSRYFDKLGDGNIIVYIAPTNELVYDMFKKVGSEYAKRGAIDRISHEVRVYGSIFDQDPSIRSIREPPSMETKIVLMTNYQRLYPGNNRFNYNVMIDEASKSPLHTAFIGLANQLAKDELDGSISIVGDPMQAISLGPYQGSARRMLIMSYLLAPMLNHSSRDLNDRELLAEAKRSAIRGSSFEFLEVTLRMPSPSEEAISKGFYDNDLRAYRSASQILHSNYEANKLRELATEKEQMRKITEKVEELISTGRCILYERVNEKKSYDSNYYRKYGLTYDPTRAELGIETAIALAAGTGKHTTVITTYVDQQIQMDLLMRRKYGYILEKYGIRDQISFSTTQSFLGAEDDNIVAVLGKEYSISTYTQNYSTSTYNEGDPSTIYFNEPEVLNVQLSRHKMLLAIIGNLSILASQAAEGHHHHHH,not soluble
15,MAQLENQILETLKPLIDANTGKSYVAAKNVKNLKCGDAEISLDVVLAYPAKSQFDAVRQQFEAALAPLAEGRAIKIAVSAQIVSHSAQRGVPLLPGVKNVIAVASGKGGVGKSTTAANLALALADEGARVGLLDADIYGPSQPLMMGLQGQRPETADGKLTPLSNHGIQTMSIGYLVDADQAMVWRGPMVSQALQQLLNDTRWDDLDYLVIDMPPGTGDVQLTLSQKVPVTGALIVTTPQDIALLDARKGVTMFQKVGVPILGLVENMAIHVCSNCGHAEHIFGEGGAVKMAQDFGVELLGSLPLDLAIRQAVDEGRPSVAADPSGKPAELYRAIARRVAVKVGEKAQDFSGKFPKIVIQNNLEHHHHHH,not soluble
